From patent US20050079574A1

Target: IGF1 (Insulin-like Growth Factor 1) (UniProt P05019)
Test: IC50 (uM) column of the drawn table; phage clone of the F(ab')2 L3/H3 library on the 4D5 template, IC50 analysed as in Sidhu et al. (P-0517); source oligo (DVK)7

IC50	Binder
0.3 µM	SEQ ID NO 69 (antibody, part only; not given: template light chain, V domains shown, part only) VH: EVQLVESGGGLVQPGGSLRLSCAASGFNIKDTYIHWVRQAPGKGLEWVARIYPTNGYTRYADSVKGRFTISADTSKNTAYLQMNSLRAEDTAVYYCSRSRGWWTAAMDVWGQGTLVTVSS
15 µM	SEQ ID NO 70 (antibody, part only; not given: template light chain, V domains shown, part only) VH: EVQLVESGGGLVQPGGSLRLSCAASGFNIKDTYIHWVRQAPGKGLEWVARIYPTNGYTRYADSVKGRFTISADTSKNTAYLQMNSLRAEDTAVYYCSRASRDWYGAMDVWGQGTLVTVSS
